Consider 1 protein from FireProtDB (doi:10.1021/bi000442n).

Values joined by “and” are separate entries in the source; they are usually repeats but may differ in a detail not shown here. Identical values can stand only once.

The conditions of this data set: Mus musculus; pH 7.5; Thermal; CD; KH2PO4-K2HPO4 10 mM; NaCl 0.0 mM; reversible: yes; whole UniProt chain shown.

B1: Signal peptide peptidase wild type, Q9D8V0 (protein)
chain: MDSAVSDPHNGSAEAGTPANGTTRPPSTPEGIALAYGSLLLMALLPIFFGALRSVRCARGKSSSDMPETITSRDAARFPIIASCTLLGLYLFFKIFSQEYINLLLSMYFFVLGILALSHTISPFMNKFFPANFPNRQYQLLFTQGSGENKEEIINYEFDTKDLVCLGLSSVVGVWYLLRKHWIANNLFGLAFSLNGVELLHLNNVSTGCILLGGLFIYDIFWVFGTNVMVTVAKSFEAPIKLVFPQDLLEKGLEADNFAMLGLGDIVIPGIFIALLLRFDISLKKNTHTYFYTSFAAYIFGLGLTIFIMHIFKHAQPALLYLVPACIGFPVLVALAKGEVAEMFSYEESNPKDPAAETESKEESTEASASKRLEKKEK
B1: the Tm (usually the temperature at the midpoint of the melting transition) was 43.7 °C and 41 °C.
